The target of data set [1] is T1, NS3 (nonstructural protein 3, protease-helicase) (Hepatitis C virus genotype 1b (con1b), UniProt Q9WMX2 1027-1657). Briefly: fluorescence anisotropy; 100 mM KCl; 25 mM MOPS pH 6.5, 100 mM KCl, 0.1 mM EDTA, 2 mM beta-mercaptoethanol, 0.1 mg/ml BSA, 37 C, 30 min; RNA 2 nM unless stated, folded in 100 mM KCl. Conditions: protein: recombinant, label: 3'-6FAM. Background: Polarisation of emitted light reports the rotation of a fluorescent probe.

For data set [2], the target named is T1, NS3 (nonstructural protein 3, …). The experiment in a line: fluorescence anisotropy; 100 mM KCl; 6 nM RNA; 25 mM MOPS pH 6.5, 100 mM KCl, 0.1 mM EDTA, 2 mM beta-mercaptoethanol, 0.1 mg/ml BSA, 37 C, 30 min; RNA 2 nM unless stated, folded in 100 mM KCl. To be noted: protein: recombinant; label: 3'-6FAM; parallel G4 with 3' overhang 20 nt.
For data set [3] the target is unchanged. Briefly: fluorescence anisotropy; 100 mM KCl; 5.4 nM RNA; 25 mM MOPS pH 6.5, 100 mM KCl, 0.1 mM EDTA, 2 mM beta-mercaptoethanol, 0.1 mg/ml BSA, 37 C, 30 min; RNA 2 nM unless stated, folded in 100 mM KCl. Conditions: protein: recombinant; label: 3'-6FAM; parallel G4 with 3' overhang 20 nt.
The target is the same in data set [4]. Briefly: fluorescence anisotropy; 100 mM KCl; same data, two-sites fit, Kd1; 25 mM MOPS pH 6.5, 100 mM KCl, 0.1 mM EDTA, 2 mM beta-mercaptoethanol, 0.1 mg/ml BSA, 37 C, 30 min; RNA 2 nM unless stated, folded in 100 mM KCl. To be noted: protein: recombinant; label: 3'-6FAM; single-stranded.
Data set [5] shares this target. Briefly: fluorescence anisotropy; 100 mM KCl; quadratic fit; 25 mM MOPS pH 6.5, 100 mM KCl, 0.1 mM EDTA, 2 mM beta-mercaptoethanol, 0.1 mg/ml BSA, 37 C, 30 min; RNA 2 nM unless stated, folded in 100 mM KCl. Conditions: protein: recombinant; label: 3'-6FAM; single-stranded.

T1 sequence (Q9WMX2 1027-1657): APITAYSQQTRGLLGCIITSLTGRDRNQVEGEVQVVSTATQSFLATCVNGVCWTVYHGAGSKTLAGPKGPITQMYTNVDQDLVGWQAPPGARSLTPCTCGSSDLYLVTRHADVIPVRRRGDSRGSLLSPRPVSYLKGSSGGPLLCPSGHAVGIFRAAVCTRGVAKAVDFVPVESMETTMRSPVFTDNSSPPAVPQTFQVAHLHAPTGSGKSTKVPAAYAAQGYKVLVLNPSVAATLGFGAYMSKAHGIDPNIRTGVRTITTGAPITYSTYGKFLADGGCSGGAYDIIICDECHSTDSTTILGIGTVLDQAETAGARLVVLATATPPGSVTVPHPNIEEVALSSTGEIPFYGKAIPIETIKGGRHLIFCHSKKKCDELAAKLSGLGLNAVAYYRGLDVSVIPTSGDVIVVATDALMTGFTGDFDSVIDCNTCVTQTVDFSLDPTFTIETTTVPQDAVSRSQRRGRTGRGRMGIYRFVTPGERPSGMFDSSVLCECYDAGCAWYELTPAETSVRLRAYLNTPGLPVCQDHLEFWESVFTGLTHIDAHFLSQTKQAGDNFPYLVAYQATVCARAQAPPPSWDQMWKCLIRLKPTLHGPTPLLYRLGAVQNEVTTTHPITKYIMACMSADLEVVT

One may read the Kd as a measure of binding affinity in units of concentration. Turning to AAGGGUGGGUGGGUGGGAA (structured_RNA) [NONHCVG4], in data set [1] (parallel G4 (three-tetrad)), the Kd is 23 ± 7 nM.

Take AAGGGUGGGUGGGUGGGAAAAAAAAAAAAAAAAAAAA (structured_RNA) [NONHCVG4-A20]: the Kd in data set [2] is 12 ± 3 nM.

Regarding AAGGGCUGCGGGUGGGCAGGGAAAAAAAAAAAAAAAAAAAA (structured_RNA) [HCVG4-A20], in data set [2], the Kd worked out at 11 ± 3 nM.

With AAGGGAGGGGGGGUCCUGGAGGAAAAAAAAAAAAAAAAAAAA (structured_RNA) [NEGG4-A20], the Kd in data set [3] amounted to 6 ± 2 nM.

In the case of AAAAAAAAAAAAAAAAAAAA (ssRNA) [A20], the results for the Kd in data set [4] and in data set [5] were 4.9 nM and 6 ± 1 nM, respectively.

Regarding AAGGGCUGCGGGUGGGCAGGGAA (structured_RNA) [HCVG4], the Kd in data set [1] (parallel G4 (three-tetrad)) turned out to be 17 ± 4 nM.

For AAGGGAGGGGGGGUCCUGGAGGAA (structured_RNA) [NEGG4], the Kd in data set [1] (parallel G4 (two-tetrad)) is 19 ± 5 nM.

The record behind these values is PMC9582721, “Hepatitis C virus nonstructural protein NS3 unfolds viral G-quadruplex RNA structures”.
